Literature values in patent US7833964B2, “Methods of reducing visceral fat by increasing levels of insulin-like growth factor-I (IGF-I)” (Tercica, Inc., priority 2003, dated 2010).

Experiments:
[1] = target: T1, human placental Type I IGF receptor (Homo sapiens, UniProt P08069); conditions: relative to the comparator named in the value; cited from earlier work
T1 construct: the human placental Type I IGF receptor; host or cells: human placenta (endogenous receptor)

[2] = target: T2, placental insulin receptor (Homo sapiens, UniProt P06213); conditions: relative to the comparator named in the value; cited from earlier work
T2 construct: the placental insulin receptor; host or cells: placenta (endogenous receptor)

[3] = system: Type I IGF receptor of rat and mouse cells; conditions: relative to IGF-I; cited from earlier work
Type 2 IGF receptor = conditions: relative to human IGF-I; cited from earlier work

Substance	affinity to the Type I IGF receptor [1]	affinity to the insulin receptor [2]	affinity to the Type I IGF receptor of rat and mouse cells [3]	affinity to the Type 2 IGF receptor (Type 2 IGF receptor)
(Leu^24)IGF-I: functional mutant of IGF-I described in Cascieri et al. 1988	lower affinity than IGF-I	lower affinity than IGF-I	lower affinity than IGF-I	
(Phe^23, Phe^24, Tyr^25)IGF-I: functional mutant of IGF-I described in Cascieri et al. 1988	equipotent to human IGF-I	equipotent to human IGF-I		equipotent to human IGF-I
(Ser^24)IGF-I: functional mutant of IGF-I described in Cascieri et al. 1988	lower affinity than IGF-I	lower affinity than IGF-I	lower affinity than IGF-I	
